Results published in patent publication US20240350646A1, “METHODS AND COMPOSITIONS FOR DELIVERY TO AND ACROSS THE BLOOD BRAIN BARRIER” (NUtech Ventures, priority 2021, published 2024).

T1: human claudin-4 (Homo sapiens, UniProt O14493)
T1 sequence (O14493 1-209): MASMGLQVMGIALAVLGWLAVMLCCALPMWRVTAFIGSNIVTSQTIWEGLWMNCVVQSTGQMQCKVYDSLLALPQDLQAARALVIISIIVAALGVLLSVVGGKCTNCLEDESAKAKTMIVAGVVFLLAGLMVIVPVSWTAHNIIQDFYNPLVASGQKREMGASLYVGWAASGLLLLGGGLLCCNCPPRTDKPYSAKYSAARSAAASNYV

T2: human claudin-9 (Homo sapiens, UniProt O95484)
T2 sequence (O95484 1-217): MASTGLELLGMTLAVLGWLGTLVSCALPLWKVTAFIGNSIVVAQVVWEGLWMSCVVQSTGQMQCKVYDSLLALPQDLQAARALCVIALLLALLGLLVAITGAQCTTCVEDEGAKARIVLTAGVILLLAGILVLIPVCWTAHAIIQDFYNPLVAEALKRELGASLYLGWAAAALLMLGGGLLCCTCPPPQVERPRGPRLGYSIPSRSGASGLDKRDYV

T3: human claudin-3 (Homo sapiens, UniProt O15551)
T3 sequence (O15551 1-220): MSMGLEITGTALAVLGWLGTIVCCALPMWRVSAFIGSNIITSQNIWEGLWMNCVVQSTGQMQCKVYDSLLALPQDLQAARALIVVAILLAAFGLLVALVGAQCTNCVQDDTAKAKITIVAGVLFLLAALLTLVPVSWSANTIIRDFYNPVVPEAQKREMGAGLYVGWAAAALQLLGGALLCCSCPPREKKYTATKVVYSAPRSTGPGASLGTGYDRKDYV

T4: human claudin-4 (human, UniProt O14493 1-209, limits assumed)
T4 sequence (looked up): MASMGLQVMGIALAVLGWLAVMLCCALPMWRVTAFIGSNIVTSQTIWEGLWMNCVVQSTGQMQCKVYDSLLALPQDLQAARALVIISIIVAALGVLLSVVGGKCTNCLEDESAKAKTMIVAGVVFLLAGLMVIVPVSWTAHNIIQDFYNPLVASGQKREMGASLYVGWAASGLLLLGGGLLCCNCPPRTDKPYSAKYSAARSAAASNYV

T5: human claudin-9 (human, UniProt O95484 1-217, limits assumed)
T5 sequence (looked up): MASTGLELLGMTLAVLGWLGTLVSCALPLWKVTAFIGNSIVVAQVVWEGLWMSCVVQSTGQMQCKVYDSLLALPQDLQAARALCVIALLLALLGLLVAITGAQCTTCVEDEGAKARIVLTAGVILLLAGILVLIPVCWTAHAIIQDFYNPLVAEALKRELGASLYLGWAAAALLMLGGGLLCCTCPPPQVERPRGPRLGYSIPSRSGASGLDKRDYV


What was measured:
human claudin-4 [1] = target: T1, human claudin-4; assay: Microscale thermophoresis (MST) binding; settings: 0.1% beta-UDM buffer
Description: (§1) Human claudin-1 was expressed and purified as reported previously (Vecchio & Stroud, 2019, PNAS USA, 116:17817-24). MST measurements were performed using a Monolith instrument (NanoTemper Technologies). For experiments with human claudin-1, the assay buffer contained 10 mM Tris HCl, pH 8.0, 100 mM NaCl, 4% glycerol, and 0.04% n-Dodecyl-β-D-Maltopyranoside (β-DDM). NPs and peptides were labeled with AF647 prior to MST analysis as described above. For the binding experiments, the concentration of human claudin-1 was varied from 2.2-73,500 nM and the AF647-labeled C1C2-NP was fixed at 70 nM, while the AF647 labeled NPs and AF647 labeled C1C2 peptide were fixed at 1 and 0.3 μM, respectively. Binding of the AF647 labeled C1C2-NP to human claudin-3, -4, and -9 were tested using 0.4-14000 nM, 0.8-28000 nM, and 0.6-20000 nM, respectively; with the AF647 labeled C1C2-NP fixed at 70 nM. This assay buffer was similar, except β-DDM was replaced with 0.1% n-Undecyl-β-D-Maltopyranoside (beta-UDM). In order to check non-specific binding of β-DDM micelles to the AF647 labeled C1C2-NP, the concentration of beta-DDM was varied from 0.03-900 μM and the concentration of the AF647-labeled C1C2-NP was fixed at 1 μM. A similar experiment was performed wherein the concentration of beta-UDM was varied from 0.3-10,000 μM and the concentration of AF647-labeled control NP was fixed at 1 μM. The non-specific binding of human claudins 4 and 9 to the NP was examined by varying the concentrations of human claudins 4 and 9 from 0.7-20,100 nM and 0.8-31,100 nM, respectively. The human claudin sub-dilutions were mixed with the NPs or peptides and loaded in standard monolith NT.115 capillary tubes for measurement. All experiments were conducted at 23° C. using the nano-red channel of the Monolith instrument and the data were analyzed by using either Monolith analysis software or Graph Pad Prism, version 9 (Graph Pad Software, San Diego, California).

human claudin-9 [2] = target: T2, human claudin-9; assay: Microscale thermophoresis (MST) binding; settings: 0.1% beta-UDM buffer
Description: as §1

human claudin-3 = target: T3, human claudin-3; assay: Microscale thermophoresis (MST) binding; settings: 0.1% beta-UDM buffer
Description: as §1

human claudin-4 [3] = target: T4, human claudin-4; assay: MST, sigmoidal dose-response fit (GraphPad Prism) of the FIG. 10A data, M is the unit of the concentration axis of panel A; confidence interval undefined [panel B]
Description: (§2) FIG. 10A is a graph showing binding of human claudins 3, 4 and 9 to C1C2-NPs using microscale thermophoresis. […] FIG. 10C is a graph showing the binding of human claudins 4 and 9 to control NPs monitored using microscale thermophoresis. […] Data fitting for human claudins 3, 4 and 9 were performed using Graph Pad Prism.
(§3) Human claudin-1 was expressed and purified as reported previously (Vecchio & Stroud, 2019, PNAS USA, 116:17817-24). MST measurements were performed using a Monolith instrument (NanoTemper Technologies). For experiments with human claudin-1, the assay buffer contained 10 mM Tris HCl, pH 8.0, 100 mM NaCl, 4% glycerol, and 0.04% n-Dodecyl-β-D-Maltopyranoside (β-DDM). NPs and peptides were labeled with AF647 prior to MST analysis as described above. For the binding experiments, the concentration of human claudin-1 was varied from 2.2-73,500 nM and the AF647-labeled C1C2-NP was fixed at 70 nM, while the AF647 labeled NPs and AF647 labeled C1C2 peptide were fixed at 1 and 0.3 μM, respectively. Binding of the AF647 labeled C1C2-NP to human claudin-3, -4, and -9 were tested using 0.4-14000 nM, 0.8-28000 nM, and 0.6-20000 nM, respectively; with the AF647 labeled C1C2-NP fixed at 70 nM. This assay buffer was similar, except β-DDM was replaced with 0.1% n-Undecyl-β-D-Maltopyranoside (beta-UDM).

human claudin-9 [4] = target: T5, human claudin-9; assay: MST, sigmoidal dose-response fit (GraphPad Prism) of the FIG. 10A data, M is the unit of the concentration axis of panel A; fit did not converge [panel B]
Description: as §2, §3

Binding to human claudin 4 (in words) (human claudin-4 [1]; listed as AF647-C1C2-NP)	Binding to human claudin 4 (in words) (human claudin-4 [1]; listed as C1C2-NPs)	Binding to human claudin 9 (in words) (human claudin-9 [2]; listed as AF647-C1C2-NP)	Binding to human claudin 9 (in words) (human claudin-9 [2]; listed as C1C2-NPs)	Binding to human claudin 3 (in words) (human claudin-3; listed as AF647-C1C2-NP)	Binding to human claudin 3 (in words) (human claudin-3; listed as C1C2-NPs)	EC50 (human claudin-4 [3]) [mM]	EC50 (human claudin-9 [4]) [mM]	Molecule
weak	undefined 95% confidence intervals	weak	the data did not fit	does not show any binding	undefined 95% confidence intervals	–	–	C1C2-NP: PEG diacid coated ultrasmall Gd NP conjugated with C1C2 peptide SSVSQSTGQIQSKVDSLLNLNSTQATR (SEQ ID NO: 6); claudin-1 targeted (Ac-SSVSQSTGQIQSKVDSLLNLNSTQATR-NH2; also: conjugated to PEG diacid coated ultrasmall Gd nanoparticle)
–	–	–	–	–	–	0.0201	218	Ac-SSVSQSTGQIQSKVDSLLNLNSTQATR-NH2 (not fully specified; also: conjugated by EDC-NHS chemistry to PEG diacid on Gd oxide nanoparticle surface (19 peptides per 3.5 nm particle), The protein part is the C1C2 peptide; the core is not a protein; also called C1C2-NPs; C1C2 NPs) [C1C2-NP (C1C2 peptide conjugated to PEG diacid coated ultrasmall Gd nanoparticles)]
